The text below walks through data of the DeepSol protein solubility set.

This data set can be described thus: soluble on expression in E. coli; label from the status in PepcDB or PDB records.
Consider “SIVADSECRAELKDYLRFAPGGVGDSGPGEEQRESRARRGPRGPSAFIPVEEVLREGAESLEQHLGLEALMSSGRVDNLAVVMGLHPDYFTSFWRLHYLLLHTDGPLASSWRHYIAIMAAARHQCSYLVGSHMAEFLQTGGDPEWLLGLHRAPEKLRKLSEINKLLAHRPWLITKEHIQALLKTGEHTWSLAELIQALVLLTHCHSLSSFVFGCGILPEGDADGSPAPQAPTPPSEQSSPPSRDPLNNSGGFESARDVEALMERMQQLQESLLRDEGTSQEEMESRFELEKSESLLVTPSADILEPSPHPDMLCFVEDPTFGYEDFTRRGAQAPPTFRAQDYTWEDHGYSLIQRLYPEGGQLLDEKFQAAYSLTYNTIAMHSGVDTSVLRRAIWNYIHCVFGIRYDDYDYGEVNQLLERNLKVYIKTVACYPEKTTRRMYNLFWRHFRHSEKVHVNLLLLEARMQAALLYALRAITRYMT”, for which the “soluble on expression in E. coli” value is recorded as “not soluble”.
As for “MAEEHHHHHHHHLEVLFQGPGRPKTHTVGSVAKVEQVKFDATSMHVKPQVAAQQKMVDDGSGEVQVWRIENLELVPVDSKWLGHFYGGDCYLLLYTYLIGEKQHYLLYVWQGSQASQDEITASAYQAVILDQKYNGEPVQIRVPMGKEPPHLMSIFKGRMVVYQGGTSRTNNLETGPSTRLFQVQGTGANNTKAFEVPARANFLNSNDVFVLKTQSCCYLWCGKGCSGDEREMAKMVADTISRTEKQVVVEGQEPANFWMALGGKAPYANTKRLQEENLVITPRLFECSNKTGRFLATEIPDFNQDDLEEDDVFLLDVWDQVFFWIGKHANEEEKKAAATTAQEYLKTHPSGRDPETPIIVVKQGHEPPTFTGWFLAWDPFKWSGIHVVPNLSPLSNN”, the “soluble on expression in E. coli” value was “soluble”.
In the case of “IVHREHHESREEVSVSSGKNNPFYFNSDRWFRTLYRNEWGHIRVLQRFDQRSKQMQNLENYRVVEFKSKPNTLLLPHHADADFLLVVLNGTAVLTLVNPDSRDSYILEQGHAQKIPAGTTFFLVNPDDNENLRIIKLAIPVNNPHRFQDFFLSSTEAQQSYLRGFSKNILEASFDSDFKEINRVLFGEERQQQQGEESREEGVIVELKREQIQELMKHAKSSSRKELSSQDEPFNLRNSKPIYSNKFGRWYEMTPEKNPQLKDLDVFISSVDMKEGALLLPHYSSKAIVIMVINEGEAKIELVGLSDQQQQKQQEESLEVQRYRAELSEDDVFVIPAAYPVAINATSNLNFFAFGINAENNRRNFLAGGKDNVMSEIPTEVLEVSFPASGKKVEKLIKKQSESHFVDAQPEQQQREEGHKGRKGSLSSILGSLY”, the “soluble on expression in E. coli” value was “soluble”.
As to “MHHHHHHSSGVDLGTENLYFQSMENFNNFYILTSKELGRGKFAVVRQCISKSTGQEYAAKFLKKRRRGQDCRAEILHEIAVLELAKSCPRVINLHEVYENTSEIILILEYAAGGEIFSLCLPELAEMVSENDVIRLIKQILEGVYYLHQNNIVHLDLKPQNILLSSIYPLGDIKIVDFGMSRKIGHACELREIMGTPEYLAPEILNYDPITTATDMWNIGIIAYMLLTHTSPFVGEDNQETYLNISQVNVDYSEETFSSVSQLATDFIQSLLVKNPEKRPTAEICLSHSWLQQWDFENLFHPEETSSSSQTQDHSVRSSEDKTSKSS”, the “soluble on expression in E. coli” value was “soluble”.
To “MGHHHHHHSHEHCAIILEDDRSDISSTCANNINHNTELLPIELDTLVGKGRFAEVYKAKLKQNTSEQFETVAVKIFPYEEYASWKTEKDIFSDINLKHENILQFLTAEERKTELGKQYWLITAFHAKGNLQEYLTRHVISWEDLRKLGSSLARGIAHLHSDHTPCGRPKMPIVHRDLKSSNILVKNDLTCCLCDFGLSLRLDPTLSVDDLANSGQVGTARYMAPEVLESRMNLENAESFKQTDVYSMALVLWEMTSRCNAVGEVKDYEPPFGSKVREHPCVESMKDNVLRDRGRPEIPSFWLNHQGIQMVCETLTECWDHDPEARLTAQCVAERFSELEHLDRLSGRSCSEEKIPEDGSLNTTK” belongs “not soluble”; to “MGSDKIHHHHHHMNSPYTRSPRTIKHAFVTGATGLLGNNLVRALLKQGIKVTALVRSMEKARLQFGDLPIQYVKGDILNPEAFRSAFTDCDTLFHTAAFFRDSHKGGKHWQELYDTNVTGTTHLLKAAYEEGIRQMIHTSSIAVLKGERHQLIDETMSRDPSTKLDYYRSKILSENAVSNFLKEYPDLFLCYVLPGSMYGPGDMGPTATGQLILDYMQQKLPGIITKASYSVVDTRDVADIHILALKYGRRNERYLAAGRHMTMESIVKTLEEITGIPAPKRHIPIFLVQALAQWNELYHKITGKPVLVSKEIADITAEEYLRTYFSHKKTEQELGGQFRPFEETLLDTVRWYRNHGYLN”, “not soluble”; to “MAEIYEEGDESVDVNKESEVKTELGKGGGDENVLQFLDSLDGYLTLMDSVNSKLREGWFDLASARHSMGTLRINSTLLDLKYHPASSTLQVTDQDVESLGSVPHFALSKWASKGGSRKGKDFSTDTDSEIGSPLSPQLRHRGVSEEKPSAKDETVLAADEEIKKERAKSLSVFGGLVSPKLRGAQQSFETALETLVEIANMRASMISAFERITEK”, “soluble”.
As for “MEKSGGRIVMDEIRSFEKAHLFDLGHPLLNRIADSFVKAAGVSFDSNNVGPPSEITGNKKHRFPNLRGESSKSLDALVKNTGKESLQWGLAAGLYSGITYGMTEVRGGAHDWRNSAVAGALTGAAMAMTTSERTSHEQVVQSALTGAAISTAANLLSSVF”, the “soluble on expression in E. coli” value is given as “soluble”.
Regarding “MAHHHHHHMKELVSSFLNNLSQVSSELSCCKNKKFHVDNVSLCGIEDVLHNRDRSSLIDKEKINTLMELYKNENIYESYEEYDIDKYEKIKNNNILKNMGGNKLNVCNACLFCNNNNSQNHMNKNKNVSENINNVIDLDDEILIANFPFNSLRDVENLTYTNSEHTLNNKEYSYIKNSIDLDFDQQIKNQKKNNNSKNSSHLYNEIVKEGEYDNDDSPNFDEDSSQFKFSVLNNIKNNIHNTKDELTNNYNIIKNTLNQDYEKNIDQKEKHDIIVDNMVNSVDYQNDMDTNIKTKKKKKNQAYSNFYAKSDLPSSNIDEGSCKGCKASDTSSEFFSVASGMKPNN”, the “soluble on expression in E. coli” value is “not soluble”.
Consider “MAGSVGEETEPEWIKRVKLEGAVPCLKPDDNCKNGWTTPSPDTFMVRGPKYFSDKVKIPAGDFLLKPLGFDWIKGPKKLSEILSYPSSRIRKVIDEEFQKDGTKPFVWAFNLQLPHKDNYSAVAYFVTTEPILEGSLMDRFLKGDDGFKKSRLKLIANIVKGPWIVRKAVGEQAICVIGRALSCKYVSGENFVEIDVDIGSSMVASAIVHLAFGYVTTLTVDLAFLIESQTEAELPEKLLGAVRFSELQTESATSIELSSSTSNDQWDQTTSERSSWWKSIGNGFSNLLNQDTANMNNTSHGDIQKDEHVQKQ”, for which the “soluble on expression in E. coli” value is “soluble”.
Regarding “MGSDKIHHHHHHMSNNKCITVIGGVYIERYAWPHWDELYGSGGRALSVLQSLGCATKLYSCLNKDSANILQARAGIYKTSFEICSSLKESYRPIKFHYLHGLSTPQISAITTEFAQQNEIIEDNILVFGMLEGNPTISGNKVVYDPQNPISPKDFSENGSTANELAIVLNTNEAYKLIKNRNLSLDEIAYELIKNKAKVVIIKQGVRGVNIYQKLNDRYIKKDSVPCYFTKNVWKIGSGDCFSAHFAYQWIYEGKTPTEAAELASKATAYYCETRGYPSFEEFTNWKNRVQPITHRHSEKKVTVYLAGPFFTLSQIWLINETRRLLSEMGLIVFSPYHEIGTGDAIMVVPKDIDGINNSDIIFAIFDGKDSGTIFEIGYATAKNKPVIVYNENEKSEDLKMMEGTDCIVIKDYVSAIYRTLWESQKL”, the “soluble on expression in E. coli” value was “not soluble”.
With “SKDFMISAKGTFTYAKNQYMEIDEPDYEYAYMSQVGRPLNQYKGYIALGLFKDQEEIDNSPKQILTGVVQPGDIKYADLNNDGKIDGNDQTYIGNPELPQISYGLGVSIQYKKWDASIFFQGVGKRSIMLSDIHPFGGESYGVMQFVADNHWTEANPNPEAMYPRLTNGKNNNNNPNSTYWLRDGSYIRLKNVELGYSYKFLRAYISGQNLLTFSKFKLWDPELYTSNGLKYPTQIMGSIGLQFTF”, the “soluble on expression in E. coli” value is “not soluble”.
“MTTPGSSLPPALVDRTALAARRARMRDAALFLHHAALDEVQDRLSLVNRTFTDMAVVTPAPALWAGSFPMARFVAEDEMLDLAPQSCDLVVHAMALHWANDAVGQLIQCRRALRPDGLLLAICFGGQTLHQLRAALAEAEAQVSGGISPRVAPMAEIRDLGALLQRAGLALPVADSLTLTAEYRDLPHLMRDLRQMGEANALSARLRHPTQRAVFERAEEIYAAHFATPDNRLPATFELICLTGWAPDDSQPKPLRPGSASARLAAALGTSETPLPD”: the “soluble on expression in E. coli” value is “not soluble”.
In the case of “MDNVDFSKDIRDYSGLELAFLGDAIWELEIRKYYLQFGYNIPTLNKYVKAKVNAKYQSLIYKKIINDLDEEFKVIGKRAKNSNIKTFPRSCTVMEYKEATALEAIIGAMYLLKKEEEIKKIINIVIKGELEHHHHHH”, the “soluble on expression in E. coli” value is on record as “soluble”.
With “MGRVAEKVIIIGNNFGNDKSAVTVLFTDNMEKENKAAVVGVDNTTIYCMAPRQAEGFNKITVKVNDQTVVADETFKYSVSENVSTIAGDFVQADGAGKDGSLAEATFGQMFGVACIDEQSGIVGQAWNNNSVRYISIDEDAVITIQSGPVVGKVAVSNDKTLAYGATINGANTVYVYKKSQAWVPSRLSDISSGTDVWAVALNGDNQWLYYVTANGRLGRIEVDNPTHNEILFEHNDFSGGPFAYIAYSAFEDCFYVTTDKNKILKVWVKEDGTHAYEQINQNNTGTTDGFLADEAKFQYLRGLTIDEDGNIFVCQGDNSHVIRKIAYDENMEKRYVTTVLGTSTVHGTDDGSPDIALFNGPQDISYDGNGGYWIAMRYEPALRKYSIELEHHHHHH”, the “soluble on expression in E. coli” value is “soluble”.
Turning to “SGTPNDQAVLQAIFNPDTPFGDVVGLDLEEAEEGDEDGVFPQAQLEHSKALELQGVRAAEAGDLHTALEKFGQAISLLPDRASAYNNRAQARRLQGDVAGALEDLERAVTLSGGRGRAARQSFVQSGLLARFQGRDDDARRDFEKAARLGSPFARRQLVLLNPYAALCNRMLADMMGQLRAPSNGR”, the “soluble on expression in E. coli” value is recorded as “soluble”.
Turning to “MQSVDVAIVGGGMVGLAVACGLQGSGLRVAVLDHVVPQPLANDASPQLRVSAINAASEKLLTRLGVWSNIVARRASCYHGMEVRDKDSFGRITFDDASMGYSHLGHIVENSVIHYALWQKAQQAADITLMAPAELQQVAWGENDAFLTLKDGAMLTARLVIAADGANSWLRNKADIPLTFWDYRHHALVATIRTEEPHGAVARQVFHGEGILAFLPLSDPHLCSIVWSLSPQDAERMQQSGDEAFNQALTIAFDNRLGLCRLESERQVFPLTGRYARQFAAHRLALVGDAAHTIHPLAGQGVNLGFMDAAELVDNLRRLQRQGKDIGQHLYLRRYERSRKHSAAMMLAGMQGFRDLFAGENPAKKLLRDIGLKLADTLPGVKPQLLRQAMGLNDLPQWLRLEHHHHHH”, the “soluble on expression in E. coli” value is reported as “not soluble”.
Take “SLPTGGAPGRRWVGCRDMEHEVFVPVPAERLRDVLADPVRVARAVPGLQQDAGAEPVAGRLKVRIGSHSITYRGSLRLSARGDGTYAVEGDATESRGTGAVALALTLRADDAEGGATLTFTGTATADGRVAELPPDSVASAANRLLARFAENLGTAAQAPPAPEPEPSPQPEPRPASVFDTEVPPSSLADSGGGSDSDSDGDADEDTDAGADADADAQADEKAEAEGDADRGGRTDDEPAVSPPAEAAHARRTMIGRSAEEVDHAPPRGRYAPVPAPQPSAVGAPLRW”: the “soluble on expression in E. coli” value is given as “soluble”.
As to “MNRIKSTLTALLLAGSFQASAADQTILNSSYDIARELFVAYNPVFAEHWQQKTGKTVEIKQSHAGSSAQARSILQGLAADVVTFNQVTDVQILHDKGKLIPANWQTLLPNASSPYYSTTAFLVRKGNPKNIQDWSDLVRDDVKSVFPNPKTSGNARYTYLAALGFAQKQFGQDNQVQQDEFLKKFLANVAVFDTGGRGATTSFVERGIGDVLITFESEVNNIRQQYGADDYQVVVPKTSILAEFPVAVVEKVAKRNGTYDVATEYVSYLYSEPAQRLLAEFNYRVHDAKVQAEFAERFPAVELLTVEGIAGGWEQAMQTQFANGAKLDQLLRR”, the “soluble on expression in E. coli” value is listed as “not soluble”.
